± gives the uncertainty stated by the source.
Test: self-splicing fitness, log relative to wild type (ln ratio); higher = more splicing; Tetrahymena group I intron in knt gene, E. coli kanamycin selection, DiMSum; sequences stand for … in CUCUCU…GGAGGGAAAAGUUAUCAGGCAUGCACCUGGUAGCUAGUCUUUAAACCAAUAGAUUGCAUCGGUUUAAAAGGCAAGACCGUCAAAUUGCGGGAAAGGGGUCAACAGCCGUUCAGUACCAAGUCUCAGGGGAAACUUUGAGAUGGCCUUGCAAAGGGUAUGGUAAUAAGCUGACGGACAUGGUCCUAACCACGCAGCCAAGUCCUAAGUCAACAGAUCUUCUGUUGAUAUGGAUGCAGUUCACAGACUAAAUGUCGGUCGGGGAAGAUGUAUUCUUCUCAUAAGAUAUAGUCGGACCUCUCCUUAAUGGGAGCUAGCGGAUGAAGUGAUGCAACACUGGAGCCGCUGGGAACUAAUUUGUAUGCGAAAGUAUAUUGAUUAGUUUUGGAGUACUCGUGGUCG
Summary of the method: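 Pooled colonies went to amplicon sequencing on an Illumina HiSeq 2500 after six replicate transformations. The plates were LB agar with 100 μg/mL carbenicillin, 50 μM IPTG and 0.2% rhamnose, with or without 25 μg/mL kanamycin, incubated overnight at 37°C or 30°C. The E. coli BL21(DE3) library had all eight P1ex-region intron nucleotides randomised, the intron placed in the knt kanamycin-resistance gene on pET-22b(+). DiMSum fitness is the error-weighted combination of replicate fold changes, kanamycin against none, normalised to wild type.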

| Sequence | self-splicing fitness (ln) (30 °C) | self-splicing fitness (ln) (37 °C) |
| --- | --- | --- |
| CUCGAGCAAUAUUACGGCGU | -1.96 ± 0.12 | -1.61 ± 0.18 |
| CUCGAGCAAUAUUACGGCUA |  | -2.32 ± 0.39 |
| CUCGAGCAAUAUUACGGGUC | -3.33 ± 0.28 | -1.77 ± 0.31 |
| CUCGAGCAAUAUUACGGUAC | -2.82 ± 0.22 | -2.84 ± 0.4 |
| CUCGAGCAAUAUUACGGUCA | -2.89 ± 0.28 | -0.817 ± 0.23 |
| CUCGAGCAAUAUUACGUAAC | -1.53 ± 0.28 |  |
| CUCGAGCAAUAUUACGUAAU |  | -1.42 ± 0.29 |
| CUCGAGCAAUAUUACGUCAA | -3.49 ± 0.3 | -1.81 ± 0.26 |
| CUCGAGCAAUAUUACGUGCC | -3.35 ± 0.35 |  |
| CUCGAGCAAUAUUACGUGGA | -2.89 ± 0.27 | -1.88 ± 0.16 |
| CUCGAGCAAUAUUACGUUCA | -3.47 ± 0.35 |  |
| CUCGAGCAAUAUUACGUUCG |  | -3.15 ± 0.47 |
| CUCUAGCAAUAUUACGAAAA |  | -1.12 ± 0.2 |
| CUCUAGCAAUAUUACGAACG | -0.887 ± 0.097 | -0.112 ± 0.11 |
| CUCUAGCAAUAUUACGAAGA |  | -2.75 ± 0.26 |
| CUCUAGCAAUAUUACGAAUG | -1.55 ± 0.091 | -1.1 ± 0.11 |
| CUCUAGCAAUAUUACGACGG | -2.32 ± 0.18 | -1.98 ± 0.29 |
| CUCUAGCAAUAUUACGAGAC |  | -1.17 ± 0.26 |
| CUCUAGCAAUAUUACGAGCG | -2.79 ± 0.14 | -2.73 ± 0.16 |
| CUCUAGCAAUAUUACGAGUC |  | -2.8 ± 0.3 |
| CUCUAGCAAUAUUACGAUAA | -3.29 ± 0.27 | -2 ± 0.24 |

| Sequence | self-splicing fitness (ln) (30 °C) | self-splicing fitness (ln) (37 °C) |
| --- | --- | --- |
| CUCUAGCAAUAUUACGCACA | -3.24 ± 0.4 | -3.82 ± 0.46 |
| CUCUAGCAAUAUUACGCUGA | -1.6 ± 0.21 | -2.31 ± 0.27 |
| CUCUAGCAAUAUUACGCUGC | -3.58 ± 0.44 |  |
| CUCUAGCAAUAUUACGGAAG | -2.95 ± 0.13 | -1.34 ± 0.12 |
| CUCUAGCAAUAUUACGGCGU | -3.56 ± 0.27 | -2.83 ± 0.24 |
| CUCUAGCAAUAUUACGGUAU | -2.7 ± 0.16 | -2.77 ± 0.23 |
| CUCUAGCAAUAUUACGGUCU | -3.26 ± 0.2 | -3.06 ± 0.23 |
| CUCUAGCAAUAUUACGGUUU | -3.04 ± 0.41 | -1.82 ± 0.29 |
| CUCUAGCAAUAUUACGUCGC |  | -3.28 ± 0.47 |
| CUCUAGCAAUAUUACGUGCC | -3.23 ± 0.28 | -3.62 ± 0.39 |
| CUCUAGCAAUAUUACGUGCU | -2.48 ± 0.3 | -2.38 ± 0.27 |
| CUCUAGCAAUAUUACGUGGU | -5.48 ± 0.41 | -3.5 ± 0.22 |
| CUCUAGCAAUAUUACGUUCA | -3.66 ± 0.34 | -3.02 ± 0.27 |
| CUGAAGCAAUAUUACGAAAC | -3.39 ± 0.25 |  |
| CUGAAGCAAUAUUACGACUC | -1.82 ± 0.22 |  |
| CUGAAGCAAUAUUACGACUG | 0.187 ± 0.08 | 0.678 ± 0.11 |
| CUGAAGCAAUAUUACGAGAG | -1.32 ± 0.088 | -1.18 ± 0.11 |
| CUGAAGCAAUAUUACGAGGG | -2.03 ± 0.11 | -1.25 ± 0.14 |
| CUGAAGCAAUAUUACGAUGA | -3.52 ± 0.21 | -1.92 ± 0.16 |
| CUGAAGCAAUAUUACGAUGU | -3.12 ± 0.13 | -1.21 ± 0.12 |
| CUGAAGCAAUAUUACGCAGG | -1.8 ± 0.082 | -1.77 ± 0.12 |

| Sequence | self-splicing fitness (ln) (30 °C) | self-splicing fitness (ln) (37 °C) |
| --- | --- | --- |
| CUGAAGCAAUAUUACGCGAC | -1.46 ± 0.086 | -1.14 ± 0.1 |
| CUGAAGCAAUAUUACGCGGC | -0.11 ± 0.081 | 0.053 ± 0.11 |
| CUGAAGCAAUAUUACGCUAC | -3.7 ± 0.47 |  |
| CUGAAGCAAUAUUACGGAUG | -2.18 ± 0.1 | -1.14 ± 0.1 |
| CUGAAGCAAUAUUACGGCCC | -1.58 ± 0.48 |  |
| CUGAAGCAAUAUUACGGGAU | -1.65 ± 0.076 | -1.07 ± 0.11 |
| CUGAAGCAAUAUUACGGGGC | -3.24 ± 0.21 | -2.56 ± 0.27 |
| CUGAAGCAAUAUUACGUAGU | -4.3 ± 0.23 | -3.22 ± 0.26 |
| CUGAAGCAAUAUUACGUCGG | -3.11 ± 0.18 | -1.14 ± 0.16 |
| CUGAAGCAAUAUUACGUCUU | -3.7 ± 0.24 | -2.64 ± 0.25 |
| CUGAAGCAAUAUUACGUUCU | -3.39 ± 0.22 | -3.45 ± 0.37 |
| CUGAAGCAAUAUUACGUUGG | -2.84 ± 0.13 | -1.58 ± 0.13 |
| CUGCAGCAAUAUUACGAGAA | -2.56 ± 0.35 | -2.64 ± 0.33 |
| CUGCAGCAAUAUUACGAGAU | -3.69 ± 0.34 |  |
| CUGCAGCAAUAUUACGAUGA | -3.75 ± 0.22 | -2.45 ± 0.23 |
| CUGCAGCAAUAUUACGAUGU | -3.96 ± 0.23 | -2.71 ± 0.3 |
| CUGCAGCAAUAUUACGAUUG | -0.725 ± 0.06 | -0.488 ± 0.074 |
| CUGCAGCAAUAUUACGCAUA | -2.84 ± 0.2 | -2.73 ± 0.17 |
| CUGCAGCAAUAUUACGCCAG | -2.56 ± 0.42 | -1.07 ± 0.21 |
| CUGCAGCAAUAUUACGCCAU | -3.9 ± 0.2 | -3.42 ± 0.17 |
| CUGCAGCAAUAUUACGCGCC | -3.33 ± 0.33 | -2.17 ± 0.24 |

| Sequence | self-splicing fitness (ln) (30 °C) | self-splicing fitness (ln) (37 °C) |
| --- | --- | --- |
| CUGCAGCAAUAUUACGCUCU | -3.52 ± 0.41 | -2.27 ± 0.25 |
| CUGCAGCAAUAUUACGCUUA | -3.04 ± 0.29 | -3.98 ± 0.46 |
| CUGCAGCAAUAUUACGGAAU | -5.11 ± 0.45 | -2.74 ± 0.32 |
| CUGCAGCAAUAUUACGGAGA | -3.35 ± 0.22 | -2.83 ± 0.34 |
| CUGCAGCAAUAUUACGGAGC | -3.93 ± 0.47 | -2.61 ± 0.31 |
| CUGCAGCAAUAUUACGGCCC | -2.85 ± 0.36 |  |
| CUGCAGCAAUAUUACGGCGA | -0.954 ± 0.14 | -0.847 ± 0.13 |
| CUGCAGCAAUAUUACGGCGG | -3.57 ± 0.25 | -2.23 ± 0.28 |
| CUGCAGCAAUAUUACGGGAC | -2.53 ± 0.22 | -0.85 ± 0.17 |
| CUGCAGCAAUAUUACGGGGG | -2.95 ± 0.18 | -2.6 ± 0.21 |
| CUGCAGCAAUAUUACGGGUC | -3.51 ± 0.23 | -3.07 ± 0.31 |
| CUGCAGCAAUAUUACGGUGC | -3.97 ± 0.24 | -1.96 ± 0.23 |
| CUGCAGCAAUAUUACGGUUC | -3.41 ± 0.1 | -2.48 ± 0.13 |
| CUGCAGCAAUAUUACGUCCU | -3.82 ± 0.37 | -1.31 ± 0.31 |
| CUGCAGCAAUAUUACGUCGG | -3.32 ± 0.18 | -1.98 ± 0.2 |
| CUGCAGCAAUAUUACGUGAU | -1.19 ± 0.072 | -0.758 ± 0.12 |
| CUGCAGCAAUAUUACGUUAC | -4.46 ± 0.28 | -3.08 ± 0.24 |
| CUGCAGCAAUAUUACGUUGU | -4.62 ± 0.25 | -2.54 ± 0.2 |
| CUGCAGCAAUAUUACGUUUU | -3.97 ± 0.19 | -3.27 ± 0.21 |

From the supplement of paper PMC7877785
